Assay [1] has as its target S100A1 as used in the titrations with the RAGE V domain (mutant-S100A1 (C85S) by the introduction) (human). The assay can be described thus: NMR titration; 1H-15N HSQC, 15N-labelled protein with the unlabelled partner added, each pair in both directions, molar ratios 1:0 and 1:1 (1:0.66 and 1:1 for Kd); 25 °C; 20 mM Tris, 5 mM CaCl2, 5 mM DTT, 50 mM (NH4)2SO4, pH 7.2; Kd as the mean over selected residues.

A further assay concerns the target RAGE V domain (UniProt Q15109).
The target in assay [2] is S100A1 (human). As to the kind of experiment: other fluorescence titration; intrinsic tryptophan fluorescence of 3.50 μM S100A1, S100B added from 0 to 42 μM in steps of 2 μM; excitation 295 nm, emission read at 351 nm.
Assay [3] addresses S100A1 (human). As to the kind of experiment: NMR titration; 1H-15N HSQC, 15N-labelled protein with the unlabelled partner added, each pair in both directions, molar ratios 1:0 and 1:1 (1:0.66 and 1:1 for Kd); 25 °C; 20 mM Tris, 5 mM CaCl2, 5 mM DTT, 50 mM (NH4)2SO4, pH 7.2; Kd as the mean over selected residues.

Experimental findings from PMC5812564 are described below.

pKd: −log10 of the molar value.

Chain of RAGE V domain (Q15109 24-128): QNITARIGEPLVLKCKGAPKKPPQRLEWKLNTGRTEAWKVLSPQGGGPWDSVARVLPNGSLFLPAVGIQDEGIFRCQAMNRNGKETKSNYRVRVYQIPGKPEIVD

As to “RAGE V domain (from UniProt Q15109 24-128) (domain or fragment)”, the negative logarithm of the Kd (pKd) in assay [1] was 5.21.
In the assay with RAGE V domain, S100A1 (natural protein) had a WST-1 proliferation assay, serum-starved SW480 cells (RAGE highly expressed) treated for 48 h with 10, 50 and 100 nM S100A1; viable cell count against the serum-free control of 1.53 fold; a WST-1 proliferation assay, serum-starved SW480 cells treated for 48 h with 100 nM S100A1 and 100 nM S100B; viable cell count against the serum-free control of 1.39 fold.
Turning to S100B (natural protein), the pKd is 5.72 with S100A1 (human) [2] and 5.23 with S100A1 (human) [3].
